Test results published in publication PMC2874008, “Agrin Binds BMP2, BMP4 and TGFβ1” (PLoS ONE, 2010).

B1: Mature human BMP2 (ligand, UniProt P12643 283-396, looked up)
chain: QAKHKQRKRLKSSCKRHPLYVDFSDVGWNDWIVAPPGYHAFYCHGECPFPLADHLNSTNHAIVQTLVNSVNSKIPKACCVPTELSAISMLYLDENEKVVLKNYQDMVVEGCGCR
notes: bone morphogenetic protein 2, human, mature growth factor; source: bought: R&D Systems
B2: Mature human BMP4 (ligand, UniProt P12644 293-408, looked up)
chain: SPKHHSQRARKKNKNCRRHSLYVDFSDVGWNDWIVAPPGYQAFYCHGDCPFPLADHLNSTNHAIVQTLVNSVNSSIPKACCVPTELSAISMLYLDEYDKVVLKNYQEMVVEGCGCR
notes: bone morphogenetic protein 4, human, mature growth factor; source: bought: R&D Systems
B3: N-terminal part of rat agrin (Agrin-Nterm) (domain or fragment)
chain: RSDVCRGMLCGFGAVCEPSVEDPGRASCVCKKNACPATVAPVCGSDASTYSNECELQRAQCNQQRRIRLLRQGPCGSRDPCANVTCSFGSTCVPSADGQTASCLCPTTCFGAPDGTVCGSDGVDYPSECQLLSHACASQEHIFKKFNGPCDPCQGSMSDLNHICRVNPRTRHPEMLLRPENCPAQHTPICGDDGVTYENDCVMSRIGATRGLLLQKVRSGQCQTRDQCPETCQFNSVCLSRRGRPHCSCDRVTCDGSYRPVCAQDGHTYNNDCWRQQAECRQQRAIPPKHQGPCDQTPSPCHGVQCAFGAVCTVKNGKAECECQRVCSGIYDPVCGSDGVTYGSVCELESMACTLGREIQVARRGPCDPCGQCRFGSLCEVETGRCVCPSECVESAQPVCGSDGHTYASECELHVHACTHQISLYVASAGHCQTCGEKVCTFGAVCSAGQCVCPRCEHPPPGPVCGSDGVTYLSACELREAACQQQVQIEEAHAGPCEPAECGSGGSGSGEDDECEQELCRQRGGIWDEDSEDGPCVCDFSCQSVPRSPVCGSDGVTYGTECDLKKARCESQQELYVAAQGACRGPTLAPLLPVAFPHCAQTPYGCCQDNFTAAQGVGLAGCPSTCHCNPHGSYSGTCDPATGQCSCRPGVGGLRCDRCEPGFWNFRGIVTDGHSGCTPCSCDPRGAVRDDCEQMTGLCSCRPGVAGPKCGQCPDGQVLGHLGCEADPMTPVTCVEIHCEFGASCVEKAGFAQCICPTLTCPEANSTKVCGSDGVTYGNECQLKAIACRQRLDISTQSLGPCQ
modifications: glycosylation at multiple sites (proteoglycan smear on SDS-PAGE)
notes: not agrin residues; rat agrin, residues Asp65-Gln865, amplified from rat agrin cDNA NM_175754.1; numbers count on: the protein encoded by NM_175754.1; Calculated molecular mass of the recombinant protein 88,054 Da

Tests used:
[1] = biological target: B3; assay: SPR; BIAcore X; BMP2, BMP4 or TGFβ1 immobilised on CM5 chips by amine coupling, Agrin-Nterm injected at 20 µl/min; 20 mM HEPES, 150 mM NaCl, 5 mM EDTA, 0.005% Tween 20, pH 7.5; global fit, 1:1 Langmuir model; settings: both partners purified
[2] = biological target: Mature human TGFβ1 (human); assay: SPR; solution-competition: constant concentration of growth factor (40 nM BMP2, 40 nM BMP4 or 4 nM TGFβ1) preincubated 30 min at room temperature with increasing Agrin-Nterm, injected over immobilised ECD of the receptor (BMPR1A or TGF-βsRII) on CM5; 20 mM HEPES, 150 mM NaCl, 5 mM EDTA, 0.005% Tween 20, pH 7.5; 50% decrease in kobs by the method of Nieba et al.
Chain of Mature human TGFβ1 (human) (P01137 279-390): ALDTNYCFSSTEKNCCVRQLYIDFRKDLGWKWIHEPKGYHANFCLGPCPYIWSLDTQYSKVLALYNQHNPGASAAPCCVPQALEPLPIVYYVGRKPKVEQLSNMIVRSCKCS

[3] = biological target: B1; assay: as above; settings: both partners purified
[4] = biological target: B2; assay: as above; settings: both partners purified
[5] = biological target: Mature human TGFβ1 (human); assay: SPR; BIAcore X; BMP2, BMP4 or TGFβ1 immobilised on CM5 chips by amine coupling, Agrin-Nterm injected at 20 µl/min; 20 mM HEPES, 150 mM NaCl, 5 mM EDTA, 0.005% Tween 20, pH 7.5; global fit, 1:1 Langmuir model

| Kd [1] [nM] | koff [1] [s⁻¹] | kon [1] [M⁻¹ s⁻¹] | IC50 [2] [nM] | IC50 [3] [nM] | IC50 [4] [nM] | Kd [5] [nM] | koff [5] [s⁻¹] | kon [5] [M⁻¹ s⁻¹] | Binder |
| --- | --- | --- | --- | --- | --- | --- | --- | --- | --- |
| 262 | 0.000286 | 1090 | – | – | – | – | – | – | B1 |
| 257 | 0.000412 | 1610 | – | – | – | – | – | – | B2 |
| – | – | – | 2000 | 12 | 345 | 51.5 | 0.000172 | 3340 | B3 |
